These results are taken from the DeepSol protein solubility set.

A short description of the data set: soluble on expression in E. coli; label from the status in PepcDB or PDB records.
For the sequence “MRGEFYQQLTNDLETARAEGLFKEERIITSAQQADITVADGSHVINFCANNYLGLANHPDLIAAAKAGMDSHGFGMASVRFICGTQDSHKELEQKLAAFLGMEDAILYSSCFDANGGLFETLLGAEDAIISDALNHASIIDGVRLCKAKRYRYANNDMQELEARLKEAREAGARHVLIATDGVFSMDGVIANLKGVCDLADKYDALVMVDDSHAVGFVGENGRGSHEYCDVMGRVDIITGTLGKALGGASGGYTAARKEVVEWLRQRSRPYLFSNSLAPAIVAASIKVLEMVEAGSELRDRLWANARQFREQMSAAGFTLAGADHAIIPVMLGDAVVAQKFARELQKEGIYVTGFFYPVVPKGQARIRTQMSAAHTPEQITRAVEAFTRIGKQLGVIA”, the “soluble on expression in E. coli” value was “soluble”. “MRGIRDPRLIPIAEKVMEGKRLSFEDGLVLYQTKDLPTLMRLANLVRERKHGHKTYFVHSIRVSQTNICYVGCTFCAFQRRFGEEGAWDWDVDEVVAWVKERYQPGLTEIHLTAGHHPKRPFAYYLDLVRALKENFPGVQVKAWTAAEIHHFSKIARLPYREVLKALKEAGLDAMPGGGAEIFAERVRRKIARAKVSAEGWLEIHRTAHELGIPTNATMLYGHIETLEERLDHMDRLRRLQDETGGFMSFIPLAFQPDGNQLARELGKKEFTTGLDDLRNLAVARLYLDNFPHIKGYWATLTPELAQVSLDWGVTDVDGTLIEERIVHMAGSPTPQGLTKRELARIILMAGRIPVERDALYREVRVWDRVEA”: the “soluble on expression in E. coli” value is recorded as “soluble”. With “MRGSHHHHHHGSENLYFQSGAMEIREQLNLGGIVNAQNAQLSNCSDGAAQLESCGTAPDLKGITGWLNTPGNKPIDLKSLRGKVVLIDFWAYSCINCQRAIPHVVGWYQAYKDSGLAVIGVHTPEYAFEKVPGNVAKGAANLGISYPIALDNNYATWTNYRNRYWPAEYLIDATGTVRHIKFGEGDYNVTETLVRQLLNDAKPGVKLPQPSSTTTPDLTPRAALTPETYFGVGKVVNYGGGGAYDEGSAVFDYPPSLAANSFALRGRWALDYQGATSDGNDAAIKLNYHAKDVYIVVGGTGTLTVVRDGKPATLPISGPPTTHQVVAGYRLASETLEVRPSKGLQVFSFTYG”, the “soluble on expression in E. coli” value is “soluble”. Then “MRGSHHHHHHPEYDYIRDGNAIYERSFAIIRAEADLSRFSEEEADLAVRMVHACGSVEATRQFVFSPDFVSSARAALKAGAPILCDAEMVAHGVTRARLPAGNEVICTLRDPRTPALAAEIGNTRSAAALKLWSERLAGSVVAIGNAPTALFFLLEMLRDGAPKPAAILGMPVGFVGAAESKDALAENSYGVPFAIVRGRLGGSAMTAAALNSLARPGL”, with “soluble”; and “MRGSHHHHHHTDPALRAKPENKLPVLDLISAEMKTVVNTLQPDLPPWPATGTIAEQRQYYTLERRFWNAGAPEMATRAYMVPTKYGQVETRLFCPQPDSPATLFYLHGGGFILGNLDTHDRIMRLLASYSQCTVIGIDYTLSPEARFPQAIEEIVAACCYFHQQAEDYQINMSRIGFAGDSAGAMLALASALWLRDKQIDCGKVAGVLLWYGLYGLRDSVTRRLLGGVWDGLTQQDLQMYEEAYLSNDADRESPYYCLFNNDLTREVPPCFIAGAEFDPLLDDSRLLYQTLAAHQQPCEFKLYPGTLHAFLHYSRMMKTADEALRDGAQFFTAQLGLCGR”, with “soluble”. Regarding “MRGSHHHHHHTDPALRARIGIDLGGTKTEVIALGDAGEQLYRHRLPTPRDDYRQTIETIATLVDMAEQATGQRGTVGMGIPGSISPYTGVVKNANSTWLNGQPFDKDLSARLQREVRLANDANCLAVSEAVDGAAAGAQTVFAVIIGTGCGAGVAFNGRAHIGGNGTAGEWGHNPLPWMDEDELRYREEVPCYCGKQGCIETFISGTGFAMDYRRLSGHALKGSEIIRLVEESDPVAELALRRYELRLAKSLAHVVNILDPDVIVLGGGMSNVDRLYQTVGQLIKQFVFGGECETPVRKAKHGDSSGVRGAAWLWPQEGLCGR”, the “soluble on expression in E. coli” value is reported as “soluble”. Consider “MRGSHHHHHHTDPALRAYDNLKSLGITNPEEIDRYSLRQEANNDILKIYFQKDKGEFFAKSVKFKYPRQRKTVVADGVGQGYKEVQEISPNLRYIIDELDQICQRDRSEVDLKRKILDDLRHLESVVTNKISEIEADLEKLTRKGLCGR”, for which the “soluble on expression in E. coli” value is on record as “soluble”.

Take “MRGSVAALLLAAGRSIRMGRCKQLLPLGNTTVLGRCLDTLRRGGVGEIAVVVSADGEQVARAAAGHGVRVVVNPDREGDMASSVRAGRDAFGSAVGGVIVSLCDQPLVAAGTVARLRDRHATEPGRIIIPTHGGRRGHPLLFPLPVLAELEDGLTLRDLVVCDPARVCCVAVADPGILIDMDTPEDYRHVCRLMAPQEGLSLRLEHHHHHH”: the “soluble on expression in E. coli” value is recorded as “not soluble”.

For “MRGSVPSVREIETLLSQLPWRQFQSPRVHLEQYTTPVHLAARIAHHVALCIDEDERRSVQAVDLGTGTGILALALCLAGLNHVLGVDVDSEALELARANAAALWELCPQSVGAVLEFAAVDVQPNSLALAPKSFDVAVLNPPFGTRQRSADIAFLDVACHLSRRFVYSLHKSSTRSYLSRRLERFGCTAQVYARLRFDLPATYVFHRERAVDIDVDLWQIEVKR”, the “soluble on expression in E. coli” value is given as “not soluble”.

As to “MRGVTPINPQKKIEADSNPVKESDYYEGERLTHLLDLIQRGIETSKLSNVNSLPEKIWLKKQIAIGINEVTRVLERMNPNNTSDQQQNPKQLQVVILVADCKPRMLTKHIPNLAASRNVPVLYVRDNKRASLRLGELVKLKTALAIGIKARGNDLNLLLKQILPRDS”, the “soluble on expression in E. coli” value was “soluble”. Then “MRHLFASLAFMLATSTVAHAEKLTLEAITGPLPLSGPTLMKPKVAPDGSRVTFLRGKDSDRNQLDLWSYDIGSGQTRLLVDSKVVLPGTETLSDEEKARRERQRIAAMTGIVDYQWSPDAQRLLFPLGGELYLYDLKQEGKAAVRQLTHGEGFATDAKLSPKGGFVSFIRGRNLWVIDLASGRQMQLTADGSTTIGNGIAEFVADEEMDRHTGYWWAPDDSAIAYARIDESPVPVQKRYEVYADRTDVIEQRYPAAGDANVQVKLGVISPAEQAQTQWIDLGKEQDIYLARVNWRDPQHLSFQRQSRDQKKLDLVEVTLASNQQRVLAHETSPTWVPLHNSLRFLDDGSILWSSERTGFQHLYRIDSKGKAAALTHGNWSVDELLAVDEKAGLAYFRAGIESARESQIYAVPLQGGQPQRLSKAPGMHSASFARNASVYVDSWSNNSTPPQIELFRANGEKIATLVENDLADPKHPYARYREAQRPVEFGTLTAADGKTPLNYSVIKPAGFDPAKRYPVAVYVYGGPASQTVTDSWPGRGDHLFNQYLAQQGYVVFSLDNRGTPRRGRDFGGALYGKQGTVEVADQLRGVAWLKQQPWVDPARIGVQGWSNGGYMTLMLLAKASDSYACGVAGAPVTDWGLYDSHYTERYMDLPARNDAGYREARVLTHIEGLRSPLLLIHGMADDNVLFTNSTSLMSALQKRGQPFELMTYPGAKHGLSGADALHRYRVAEAFLGRCLKP”, with “soluble”. The entry for “MRHLLDFQGWSRTEVESLLDTARVMREVLERPIKKVPALQGFTVATVFFEPSTRTRISFELAARRMSADVVSFAAQTSSLQKGESYKDTLLTLEAMGVDAYVIRADSAGVPHQATRWVKGAVINGGDGRRAHPTQALLDAYTLLEALGTLEGKKVAIVGDILHSRVARSGAELLSLLGAQVFCAGPPSLLPQSLPGAHLTPRLEEALEEADAVMVLRLQKERMEAGLVHLEDYVARYQVTEKRLALAKPQAPLLHPGPMNRDVELEGTLADSARSLVNRQVQNGVAVRMAALYHLLVGKEKA” is “soluble”; for “MRIFERYNPSKVAKYVKTLFRGRLYIKGVGAFEFDYGKILLPKKQDKQHLLVMSEVNRQVIRLQAEMGLEHHHHHH” it is “not soluble”. For “MRISSLLFLTFLAGIVQAQDFLAMFKPFLGGGGGGGNPFANPQAIGGLFQQFAGGNGGGFGQLLAGAMAPKPAPAAAGPRSAPAPTNEDYNTDIDVPAPKAKARAAPTPRRAQGDDDDNIDMSLTRLG”, the “soluble on expression in E. coli” value is “not soluble”. Regarding “MRIVVISLFLFSGVFGRASREAEKKQDTVACGELRDEYVRVCTGANTKRREQKDKDFCNAFENICFSIPEGEPDKAKDAEVTGPRTAAISPESAAAVRGETTGSAHKKTNFARFCKEFKNQYLYVCPDPFRFGQKAIVFCPVYSEKCHVPLPDKPVIPQRKSHRKRGPGGAVNQLCRSYQGFAMNYCNNPILTAQSQYRTACDKYWRFCGKFHQQG”, the “soluble on expression in E. coli” value is “not soluble”. Regarding “MRIWIDADACPKAAKELVCKFALKRKLEVWMVAGQPQVKPPFACVRLVVVESGMDAADDYLVEQAEPGDLAICSDVPLADRLIKKQVAALDPRGREFDARNMGDKLAMRNLMADLRDQGQMGGGQAPYGERDRQAFANALDRLLTRLQREADLRASQPHR”, the “soluble on expression in E. coli” value is recorded as “not soluble”. Consider “MRKISVFDTTLRDGEQSAGVNLNFEEKMEIAKQLERLGVDIIEAGFPASSQGDFQSVKAIAETVKGSSVTGLARSVQKDIDAAWEALKSAEEPRIHLFIATSPIHMEHKLRMTPEQVIEKAVESVKYAASRFKHVQWSAEDASRSDFPFLAQIIEAVIQAGATVINLPDTVGYTTPQEIKRMFQYMKQNVPSIDKVSLSTHNHDDLGMAVANSLAAIQGGADQVECTINGIGERAGNASLEEIAVALNIRKDHYETETGLILKEIKRTSSLVSKLTGMVVPNNKAVVGANAFAHESGIHQDGVLKNKQTYEIITPEMVGVSSNSMVLGKHSGRHAFKTKVQELGFTGTDEQLNNIFKAFKDLADKKKEITEDDLFALMTEQTVGGETNHYELQTLQVNYGSNLTNTATITMKLPSGEVAEEAATGSGSVEAIYNTLERLLDAPVKLLDYRIQSITGGRDALADVYVQMDYQGVVSSGRGTAHDVLEASAKAYLNAVNRTINRKKYAEVYGSKVEV”, for which the “soluble on expression in E. coli” value is listed as “soluble”. Take “MRKIVLPGDLLSTNPRAAGYGTYVEGGKVYAKIIGLFDQTETHVRVIPLKGRYTPSVGDVVIGIIREVAANGWAVDIYSPYQAFLPVSENPEMKPNKKPNEVLDIGDAIIAKVLNIDPKMKVTLTMKDRICRPIRFGRIVAINPARVPRVIGKKGSMIKLLKSELDVQIVVGQNGLIWVNGDRRKVSIAEEAIYLIEQEAHTEGLTDRVAEFIKRRKADVGIQHHHHHH”: the “soluble on expression in E. coli” value is “soluble”. Regarding “MRKLVVGITIASLMGCSMGHRDPVEVKQALNESINQANSRALEEIPSSVEADLMPNLDSNVSSDNGTSKRFRIQANAVEARSFFASLVKGTEYSVAIHPAVQGNITVNLSDVTLDEVLSVVQNMYGYDVMKSGKVIQVYPAGMRTVTIPVDYLQFKRSGRSLTSIVTGSVTSAGTSNSGGSSDSSDSSDSNNSNNGNDSSTTSTGGTRIETITESDFWPMLQQAVANLIGSGKGQSVVVTPQAGVITVRAFPDDIREVREFLGVSQERMQRQVILEAKILEVTLSDGYQQGINWSNLSASIGNSGSIIVNRPASALPPLDAIGTLLGGQTNVTISDGNFEAVLNFMSTQGDLNVLSSPRITAANNQKSVIKVGTDQYFVTELSSNAGNGENSNAVPEVELTPFFSGISLDVTPQIDNKGNVFLHVHPAVIEVTEEVKQLNLGGDFQNIQLPLAKSSIRESDSVIRAKDGDVVVIGGLMKQQNVEQVSKVPFLGDVPALGHLFRNTSNVTQKTELVILLKPTVVGVNSWQKELERSRDLLQEWFPDAQLEHHHHHH”, the “soluble on expression in E. coli” value was “not soluble”. In the case of “MRKPKITVIGGGTGSPVILKSLREKDVEIAAIVTVADDGGSSGELRKNMQQLTPPGDLRNVLVAMSDMPKFYEKVFQYRFSEDAGAFAGHPLGNLIIAGLSEMQGSTYNAMQLLSKFFHTTGKIYPSSDHPLTLHAVFQDGTEVAGESHIVDHRGIIDNVYVTNALNDDTPLASRRVVQTILESDMIVLGPGSLFTSILPNIVIKEIGRALLETKAEIAYVCNIMTQRGETEHFTDSDHVEVLHRHLGRPFIDTVLVNIEKVPQEYMNSNRFDEYLVQVEHDFVGLCKQVSRVISSNFLRLENGGAFHDGDLIVDELMRIIQVKKLEHHHHHH”, the “soluble on expression in E. coli” value was “soluble”.
